Laboratory results from patent US20240277865A1 (ACADEMIA SINICA, published 2024).

Columns and labels:
mesothelin (MSLN) [1] = molecular target: T1, mesothelin (MSLN) (UniProt Q13421 296-580); assay: ELISA, MSLN coated on plate, IgG1 detected with anti-human IgG HRP
T1 construct: also called immobilized MSLN

[2] = molecular target: MSLN expressed on the cell surface of human cancer cell lines N87 and H226 (human, UniProt Q13421 37-598); assay: cell-based or functional assay
mesothelin (MSLN) [3] = molecular target: T1, mesothelin (MSLN); assay: ELISA, MSLN coated on plate, IgG1-vcMMAE detected with anti-human IgG HRP

T1 sequence (Q13421 other isoform, or with tags, fused parts or gaps limits assumed): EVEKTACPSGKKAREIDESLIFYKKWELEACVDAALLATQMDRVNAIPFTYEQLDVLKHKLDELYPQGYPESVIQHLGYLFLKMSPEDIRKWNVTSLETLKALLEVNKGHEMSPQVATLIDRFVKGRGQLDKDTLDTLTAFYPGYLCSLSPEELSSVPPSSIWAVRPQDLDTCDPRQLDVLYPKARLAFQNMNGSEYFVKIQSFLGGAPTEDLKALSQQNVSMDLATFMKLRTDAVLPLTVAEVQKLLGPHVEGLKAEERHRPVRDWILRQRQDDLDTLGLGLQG

| Binder | EC50 (mesothelin (MSLN) [1]) | IgG1-AL1-PE38KDEL IC50 (nM), cell viability of N87 cells [2] | EC50 (mesothelin (MSLN) [3]) | IgG1-vcMMAE IC50 (nM), cell viability of N87 cells [2] |
| --- | --- | --- | --- | --- |
| CHS5 IgG (antibody, V domains shown, also called IgG1-CHS5) VH: EVQLVESGGGLVQPGGSLRLSCAASGFTITDRTIHWVRQAPGKGLEWVASIFPTKGVTTYADSVKGRFTISADTSKNTAYLQMNSLRAEDTAVYYCARGRYWMDYWGQGTLVTVSS VL: DIQMTQSPSSLSASVGDRVTITCRASQDVKEGVAWYQQKPGKAPKLLIDQSHRLYSGVPSRFSGSGSGTDFTLTISSLQPEDFATYYCQQYYAWPSTFGQGTKVEIKR | 4.67 ng/mL | 0.06 nM |  |  |
| CHS7 IgG (antibody, V domains shown) VH: EVQLVESGGGLVQPGGSLRLSCAASGFTIDKEAIHWVRQAPGKGLEWVASIYPHSGFTLYADSVKGRFTISADTSKNTAYLQMNSLRAEDTAVYYCARGRYWMDYWGQGTLVTVSS VL: DIQMTQSPSSLSASVGDRVTITCRASQDVEDGVAWYQQKPGKAPKLLIGIKDLLYSGVPSRFSGSGSGTDFTLTISSLQPEDFATYYCQQYYRWPSTFGQGTKVEIKR | 10.3 ng/mL | 0.06 nM |  |  |
| CHS8 IgG (antibody, V domains shown) VH: EVQLVESGGGLVQPGGSLRLSCAASGFTISKASIHWVRQAPGKGLEWVASIWPTKGFTTYADSVKGRFTISADTSKNTAYLQMNSLRAEDTAVYYCARGRYWLDYWGQGTLVTVSS VL: DIQMTQSPSSLSASVGDRVTITCRASQDVKEGVAWYQQKPGKAPKLLIDERERLYSGVPSRFSGSGSGTDFTLTISSLQPEDFATYYCQQYNTWPATFGQGTKVEIKR | 5.05 ng/mL | 0.01 nM |  |  |
| ALA12 IgG (antibody, V domains shown) VH: EVQLVESGGGLVQPGGSLRLSCAASGFTIGNWTIHWVRQAPGKGLEWVALIWPESGATLYADSVKGRFTISADTSKNTAYLQMNSLRAEDTAVYYCARGRYWMDYWGQGTLVTVSS VL: DIQMTQSPSSLSASVGDRVTITCRASQDVRDGVAWYQQKPGKAPKLLIDQMVRLYSGVPSRFSGSGSGTDFTLTISSLQPEDFATYYCQQYFNWPVTFGQGTKVEIKR | 8.37 ng/mL | 0.1 nM |  |  |
| CHS5-vcMMAE (antibody, V domains shown, also called CHS5 IgG1-vcMMAE) VH: EVQLVESGGGLVQPGGSLRLSCAASGFTITDRTIHWVRQAPGKGLEWVASIFPTKGVTTYADSVKGRFTISADTSKNTAYLQMNSLRAEDTAVYYCARGRYWMDYWGQGTLVTVSS VL: DIQMTQSPSSLSASVGDRVTITCRASQDVKEGVAWYQQKPGKAPKLLIDQSHRLYSGVPSRFSGSGSGTDFTLTISSLQPEDFATYYCQQYYAWPSTFGQGTKVEIKR |  |  | 0.00956 µg/mL | 15 nM |
| CHS7-vcMMAE (antibody, V domains shown, also called CHS7 IgG1-vcMMAE) VH: EVQLVESGGGLVQPGGSLRLSCAASGFTIDKEAIHWVRQAPGKGLEWVASIYPHSGFTLYADSVKGRFTISADTSKNTAYLQMNSLRAEDTAVYYCARGRYWMDYWGQGTLVTVSS VL: DIQMTQSPSSLSASVGDRVTITCRASQDVEDGVAWYQQKPGKAPKLLIGIKDLLYSGVPSRFSGSGSGTDFTLTISSLQPEDFATYYCQQYYRWPSTFGQGTKVEIKR |  |  | 0.0163 µg/mL | 25.9 nM |
| CHS8-vcMMAE (antibody, V domains shown, also called CHS8 IgG1-vcMMAE) VH: EVQLVESGGGLVQPGGSLRLSCAASGFTISKASIHWVRQAPGKGLEWVASIWPTKGFTTYADSVKGRFTISADTSKNTAYLQMNSLRAEDTAVYYCARGRYWLDYWGQGTLVTVSS VL: DIQMTQSPSSLSASVGDRVTITCRASQDVKEGVAWYQQKPGKAPKLLIDERERLYSGVPSRFSGSGSGTDFTLTISSLQPEDFATYYCQQYNTWPATFGQGTKVEIKR |  |  | 0.00926 µg/mL | 24.6 nM |
| ALA12-vcMMAE (antibody, V domains shown, also called ALA12 IgG1-vcMMAE) VH: EVQLVESGGGLVQPGGSLRLSCAASGFTIGNWTIHWVRQAPGKGLEWVALIWPESGATLYADSVKGRFTISADTSKNTAYLQMNSLRAEDTAVYYCARGRYWMDYWGQGTLVTVSS VL: DIQMTQSPSSLSASVGDRVTITCRASQDVRDGVAWYQQKPGKAPKLLIDQMVRLYSGVPSRFSGSGSGTDFTLTISSLQPEDFATYYCQQYFNWPVTFGQGTKVEIKR |  |  | 0.0105 µg/mL | 39.9 nM |
